Results on one substance are retold here after paper PMC4833811.

Assay [1] has as its target 14-3-3ε:ζ heterodimer (UniProt P62258).
Assay [2] has as its target T1, GST-14-3-3γ:γ homodimer (UniProt P61981).
T1 sequence: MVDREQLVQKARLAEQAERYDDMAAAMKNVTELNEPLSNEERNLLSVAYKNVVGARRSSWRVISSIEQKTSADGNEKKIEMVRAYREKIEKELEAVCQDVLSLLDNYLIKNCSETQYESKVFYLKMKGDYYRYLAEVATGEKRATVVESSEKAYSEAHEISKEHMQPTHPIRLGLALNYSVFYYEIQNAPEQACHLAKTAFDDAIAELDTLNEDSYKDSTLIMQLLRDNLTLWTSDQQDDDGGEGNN

Chain of UniProt P62258 (P62258 whole entry, chain 1 of 2): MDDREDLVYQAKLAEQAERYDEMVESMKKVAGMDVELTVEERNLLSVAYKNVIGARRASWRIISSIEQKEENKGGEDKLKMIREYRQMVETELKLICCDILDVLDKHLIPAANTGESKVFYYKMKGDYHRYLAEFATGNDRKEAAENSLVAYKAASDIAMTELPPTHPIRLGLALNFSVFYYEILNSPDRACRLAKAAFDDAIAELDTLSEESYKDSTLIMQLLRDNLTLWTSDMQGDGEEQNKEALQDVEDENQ
Chain of UniProt P62258 (P62258 other isoform, or with tags, fused parts or gaps, chain 2 of 2): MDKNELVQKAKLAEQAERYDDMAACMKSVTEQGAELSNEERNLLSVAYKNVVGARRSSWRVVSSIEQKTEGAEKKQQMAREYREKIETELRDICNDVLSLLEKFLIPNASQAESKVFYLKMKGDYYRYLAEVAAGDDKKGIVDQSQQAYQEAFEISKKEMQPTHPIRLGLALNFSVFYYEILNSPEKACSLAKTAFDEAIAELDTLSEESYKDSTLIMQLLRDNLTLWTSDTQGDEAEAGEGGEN

Consider “bovine tyrosine hydroxylase phosphorylated by PRAK on Ser19 (from UniProt P17289 1-491) (enzyme)”, for which, in assay [1], the relative activation of bTH-pS19 activity (maximal, 12.5–100 µg/ml thrombin-cleaved 14-3-3, BH4 as cofactor); lowest activation came to 3.3 fold. Moreover, in assay [2], the relative activation of bTH-pS19 activity (maximal, 12.5–100 µg/ml thrombin-cleaved 14-3-3, BH4 as cofactor); highest activation amounted to 4.4 fold.
